Consider 1 molecule from paper doi:10.1101/2020.10.08.332312 (bioRxiv, 2020).

The assay concerns the target T1, Trs31 (subunit of the recombinant TRAPPIII complex) (S. cerevisiae, UniProt Q03337 1-283).
T1 sequence: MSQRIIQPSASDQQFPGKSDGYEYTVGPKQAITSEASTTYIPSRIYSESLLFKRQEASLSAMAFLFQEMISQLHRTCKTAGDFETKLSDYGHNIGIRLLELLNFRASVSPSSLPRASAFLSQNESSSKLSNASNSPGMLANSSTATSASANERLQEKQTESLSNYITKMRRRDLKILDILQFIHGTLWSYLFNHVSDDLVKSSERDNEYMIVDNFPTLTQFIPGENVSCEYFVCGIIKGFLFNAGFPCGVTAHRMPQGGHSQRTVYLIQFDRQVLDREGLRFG
In words: cryo-EM structure.

B1: Ypt1-7xHis (yeast Rab1/Ypt1 with the two C-terminal cysteines replaced by an affinity tag) (natural protein)
chain: not shown
In the case of B1, the binding result was “binds”.
